Legend:
MBNL1 (2-260) [1] = molecular target: T1, MBNL1 (2-260) (Homo sapiens, UniProt Q9NR56 2-260); experiment: EMSA; 5 mM Mg2+; 100 mM NaCl, 21 mM Tris pH 7.5, 5 mM MgCl2, 0.1 mM EDTA, 2 mg/mL BSA, 0.1 mg/mL heparin, 0.5 mM BME, 5 mM DTT, 0.02% Triton X-100, 10% glycerol, 0.02 nM RNA, room temperature 30 min; conditions: protein: recombinant; tags: GST tag removed; label: 5' 32P; single-stranded
T1 sequence: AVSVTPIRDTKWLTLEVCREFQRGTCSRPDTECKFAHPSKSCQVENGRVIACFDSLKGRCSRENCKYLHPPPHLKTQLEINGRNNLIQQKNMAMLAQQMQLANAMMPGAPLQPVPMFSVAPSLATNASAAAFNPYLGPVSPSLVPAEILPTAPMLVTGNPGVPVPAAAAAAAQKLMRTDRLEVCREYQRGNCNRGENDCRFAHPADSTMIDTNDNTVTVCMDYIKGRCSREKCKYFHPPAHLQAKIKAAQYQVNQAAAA

MBNL1 (2-260) [2] = molecular target: T1, MBNL1 (2-260); experiment: competition; vs 32P-2GC 0.02 nM, 33.3 nM MBNL1; 100 mM NaCl, 21 mM Tris pH 7.5, 5 mM MgCl2, 0.1 mM EDTA, 2 mg/mL BSA, 0.1 mg/mL heparin, 0.5 mM BME, 5 mM DTT, 0.02% Triton X-100, 10% glycerol, 0.02 nM RNA, room temperature 30 min; conditions: protein: recombinant; tags: GST tag removed; label: 5' 32P; single-stranded
MBNL1 (2-260) [3] = molecular target: T1, MBNL1 (2-260); experiment: EMSA; 5 mM Mg2+; smearing; 100 mM NaCl, 21 mM Tris pH 7.5, 5 mM MgCl2, 0.1 mM EDTA, 2 mg/mL BSA, 0.1 mg/mL heparin, 0.5 mM BME, 5 mM DTT, 0.02% Triton X-100, 10% glycerol, 0.02 nM RNA, room temperature 30 min; conditions: protein: recombinant; tags: GST tag removed; label: 5' 32P; single-stranded
MBNL1 (2-260) [4] = molecular target: T1, MBNL1 (2-260); experiment: as above; conditions: protein: recombinant; tags: GST tag removed; label: 5' 32P; single-stranded; remark: listed apart in the source
MBNL1 (2-260) [5] = molecular target: T1, MBNL1 (2-260); experiment: EMSA; 5 mM Mg2+; 100 mM NaCl, 21 mM Tris pH 7.5, 5 mM MgCl2, 0.1 mM EDTA, 2 mg/mL BSA, 0.1 mg/mL heparin, 0.5 mM BME, 5 mM DTT, 0.02% Triton X-100, 10% glycerol, 0.02 nM RNA, room temperature 30 min; conditions: protein: recombinant, tags: GST tag removed, label: 5' 32P
MBNL1 (2-260) [6] = molecular target: T1, MBNL1 (2-260); experiment: as above; conditions: protein: recombinant; tags: GST tag removed; label: 5' 32P; single-stranded; remark: listed apart in the source
MBNL1 (2-260) [7] = molecular target: T1, MBNL1 (2-260); experiment: EMSA; 5 mM Mg2+; wild type level; 100 mM NaCl, 21 mM Tris pH 7.5, 5 mM MgCl2, 0.1 mM EDTA, 2 mg/mL BSA, 0.1 mg/mL heparin, 0.5 mM BME, 5 mM DTT, 0.02% Triton X-100, 10% glycerol, 0.02 nM RNA, room temperature 30 min; conditions: protein: recombinant; tags: GST tag removed; label: 5' 32P; single-stranded
MBNL1 (2-260) [8] = molecular target: T1, MBNL1 (2-260); experiment: EMSA; 5 mM Mg2+; range for 2, 3 and 4 GC RNAs; 100 mM NaCl, 21 mM Tris pH 7.5, 5 mM MgCl2, 0.1 mM EDTA, 2 mg/mL BSA, 0.1 mg/mL heparin, 0.5 mM BME, 5 mM DTT, 0.02% Triton X-100, 10% glycerol, 0.02 nM RNA, room temperature 30 min; conditions: protein: recombinant; tags: GST tag removed; label: 5' 32P; single-stranded

UUUGCUUUUUUUUUUUUUGCUUU (ssRNA) [2GC]
Kd (MBNL1 (2-260) [1]): 11 nM

UUUGCUUUUUUUUUUUUUUUUUU (ssRNA) [1GC]
binding signal (MBNL1 (2-260) [2]): 15 fold weaker than 2GC
Kd (MBNL1 (2-260) [3]): 45 nM

UCCUUUUUUUUUCCUGCUUUUUUUUUCCU (ssRNA) [1GC#2]
binding signal (MBNL1 (2-260) [4]): ~5 fold higher Kd than the 2-4 GC 29-nt RNAs

UUAGCAUUUUUUUUUUUAGCAUU (ssRNA) [AGCA]
binding signal (MBNL1 (2-260) [5]; single-stranded): 5 fold weaker than 2GC

UUGGCGUUUUUUUUUUUGGCGUU (ssRNA) [GGCG]
binding signal (MBNL1 (2-260) [5]): 40 fold weaker than 2GC

AAUGCUAAAAAAAAAAAUGCUAA (ssRNA) [A4]
binding signal (MBNL1 (2-260) [6]): > 10 fold weaker than 2GC

CCUGCUCCCCCCCCCCCUGCUCC (ssRNA) [C4]
binding result (MBNL1 (2-260) [7]): binds

UUCGCCUUUUUUUUUUUCGCCUU (ssRNA) [CGCC]
Kd (MBNL1 (2-260) [1]): 7 nM

CCCGCCCCCCCCCCCCCCGCCCC (ssRNA) [C]
Kd (MBNL1 (2-260) [1]): 111 nM

UGCUUUUUUUUUGCUGCUUUUUUUUUGCU (ssRNA) [4GC]
Kd (MBNL1 (2-260) [8]): 3.16 nM
